Laboratory results from publication PMC11882521, “Cofactor engineering for improved production of 2,4-dihydroxybutyric acid via the synthetic homoserine pathway” (Frontiers in Bioengineering and Biotechnology, 2025).

Tests used:
[1] = molecular target: T1, Ec.Mdh^5Q D34G (OHB reductase, engineered E. coli malate dehydrogenase) (Escherichia coli, UniProt P61889, I12V/D34G/R81A/M85Q/D86S/G179D); assay: specific activity of purified enzyme at […] OHB and […] NADH; type: biochemical
T1 construct: N-terminally 6x-His-tagged
T1 sequence (P61889 whole entry I12V/D34G/R81A/M85Q/D86S/G179D): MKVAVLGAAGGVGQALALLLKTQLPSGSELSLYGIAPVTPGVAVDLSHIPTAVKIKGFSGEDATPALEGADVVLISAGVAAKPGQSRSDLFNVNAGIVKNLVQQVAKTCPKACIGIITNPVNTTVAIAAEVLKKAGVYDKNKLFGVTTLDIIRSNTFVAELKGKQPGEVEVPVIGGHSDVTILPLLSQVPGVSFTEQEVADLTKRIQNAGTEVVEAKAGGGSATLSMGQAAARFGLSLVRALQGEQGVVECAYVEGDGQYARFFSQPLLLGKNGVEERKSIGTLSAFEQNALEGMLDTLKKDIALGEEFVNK

[2] = tested on: T2, NC(=O)C1=CN([C@@H]2O[C@H](COP(=O)(O)OP(=O)(O)OC[C@H]3O[C@@H](n4cnc5c(N)ncnc54)[C@H](O)[C@@H]3O)[C@@H](O)[C@H]2O)C=CC1; assay: purified protein; type: biochemical, Escherichia coli; conditions: co-enzyme binding site, varied: cofactor
T2 construct: N-terminally 6x-His-tagged

[3] = tested on: T3, NC(=O)C1=CN([C@@H]2O[C@H](COP(=O)(O)OP(=O)(O)OC[C@H]3O[C@@H](n4cnc5c(N)ncnc54)[C@H](OP(=O)(O)O)[C@@H]3O)[C@@H](O)[C@H]2O)C=CC1; assay: purified protein; type: biochemical, Escherichia coli; conditions: varied: cofactor
T3 construct: N-terminally 6x-His-tagged

O=C(O)C(=O)CCO = tested on: T4, O=C(O)C(=O)CCO; assay: purified protein; type: biochemical, Escherichia coli
T4 construct: N-terminally 6x-His-tagged

[4] = molecular target: T1, Ec.Mdh^5Q D34G (OHB reductase, engineered E. coli malate dehydrogenase); assay: specific activity of purified enzyme at […] OHB and […] NADPH; type: biochemical
[5] = Asp34 confers cofactor specificity
[6] = co-enzyme binding site, Asp34 disfavours the […]'-phosphate group
[7] = […]'-phosphate group near positions […] and […] (selectivity control loop, cofactor binding motif of the Rossmann fold)
[8] = NADPH uncompetitive substrate inhibition (Ki =[…])

NC(=O)C1=CN([C@@H]2O[C@H](COP(=O)(O)OP(=O)(O)OC[C@H]3O[C@@H](n4cnc5c(N)ncnc54)[C@H](O)[C@@H]3O)[C@@H](O)[C@H]2O)C=CC1 [NADH]
specific activity of purified enzyme at 2 mM OHB and 0.25 mM NADH [1]: 23 ± 2 U mg^−1 (specific activity)

Ec.Mdh^5Q (OHB reductase, engineered E. coli malate dehydrogenase) (Escherichia coli K-12; D86S/G179D/I12V/M85Q/R81A)
Km [2, 5]: 40 µM | Vmax [2, 5]: 67.7 µmol/min/mg | kcat [2, 5]: 36.5 ± 1.68 s⁻¹ | kcat/Km [2, 5]: 1.03e+06 ± 67500 M⁻¹ s⁻¹ | Km [3, 6]: 320 µM | Vmax [3, 6]: 5.56 µmol/min/mg | kcat [3, 6]: 2.99 ± 0.35 s⁻¹ | kcat/Km [3, 6]: 9500 ± 50 M⁻¹ s⁻¹ | Km (O=C(O)C(=O)CCO; NADH): 1840 µM | Vmax (O=C(O)C(=O)CCO; NADH): 138 µmol/min/mg | kcat (O=C(O)C(=O)CCO; NADH): 74.9 ± 5.63 s⁻¹ | kcat/Km (O=C(O)C(=O)CCO; NADH): 44900 ± 15200 M⁻¹ s⁻¹

NC(=O)C1=CN([C@@H]2O[C@H](COP(=O)(O)OP(=O)(O)OC[C@H]3O[C@@H](n4cnc5c(N)ncnc54)[C@H](OP(=O)(O)O)[C@@H]3O)[C@@H](O)[C@H]2O)C=CC1 [NADPH]
specific activity of purified enzyme at 2 mM OHB and 0.25 mM NADPH [4]: 35 ± 3 U mg^−1 (specific activity)

Ec.Mdh^7Q (OHB reductase, engineered E. coli malate dehydrogenase) (Escherichia coli K-12; D34G/D86S/G179D/I12V/I35R/M85Q/R81A)
Km [2]: 270 µM | Vmax [2]: 20 µmol/min/mg | kcat [2]: 10.8 ± 1.07 s⁻¹ | kcat/Km [2]: 40400 ± 1710 M⁻¹ s⁻¹ | Km [3, 7]: 100 µM | Vmax [3, 7]: 119 µmol/min/mg | kcat [3, 7]: 64 ± 9.97 s⁻¹ | kcat/Km [3, 7]: 645000 ± 76200 M⁻¹ s⁻¹ | Km (O=C(O)C(=O)CCO; [8]): 1080 µM | Vmax (O=C(O)C(=O)CCO; [8]): 155 µmol/min/mg | kcat (O=C(O)C(=O)CCO; [8]): 83.4 ± 3.4 s⁻¹ | kcat/Km (O=C(O)C(=O)CCO; [8]): 80300 ± 17300 M⁻¹ s⁻¹
